# Assay results taken from paper PMC10689437.
# Target: SARS-CoV-2 non-structural protein 3 (nsp3), released from the expressed HA-nsp3-4-V5 polyprotein (SARS-CoV-2)
# Experiment: cryo-EM structure
substance,measurement,value
"SARS-CoV-2 non-structural protein 3 (nsp3), released from the expressed HA-nsp3-4-V5 polyprotein (natural protein)",stoichiometry N,6
